Values quoted from earlier work in paper PMC4859893.

Target: EGFR (Homo sapiens) (UniProt P00533)

For EGF (from UniProt P01133), the Kd is listed as 2 nM.
